Data set [1] concerns the molecule itself. The data set is described as follows: size-exclusion chromatography with multiangle light scattering (self-association in solution, disulfide-linked dimers). (SEC sorts molecules by how far they enter the pores of the column.)
Data set [2] deals with the molecule itself. The data set is described as follows: TEM, uranyl acetate stain (self-assembly into a 2D lattice). The text has this:
Multiple domains of the WT-BslA lattice could be observed in any location on the grid. The observed domain areas varied from as small as 1000 nm² (˜50 BslA molecules) up to 200000 nm² (>10000 BslA molecules). Less ordered “inter-domain” areas were also observed. […] The largest BslA-L77K domain size observed was approximately […] (1250 BslA molecules).

B1: WT-BslA truncated, BslA42-181 (other)
chain: MRTQSTASLFATITGASKTEWSFSDIELTYRPNTLLSLGVMEFTLPSGFTANTKDTLNGNALRTTQILNNGKTVRVPLALDLLGAGEFKLKLNNKTLPAAGTYTFRAENKSLSIGNKFYAEASIDVAKRSTPPTQPCGCN
notes: In solution it is a mix of monomers and disulfide-linked dimers; also called wild-type biofilm-surface layer protein A; YuaB
Take B1: the binding result in data set [1] was “binds”.

B2: BslA-L77K truncated (other)
chain: MRTQSTASLFATITGASKTEWSFSDIELTYRPNTLKSLGVMEFTLPSGFTANTKDTLNGNALRTTQILNNGKTVRVPLALDLLGAGEFKLKLNNKTLPAAGTYTFRAENKSLSIGNKFYAEASIDVAKRSTPPTQPCGCN
notes: also called L77K BslA; L77K-BslA
As for B2, the binding result in data set [2] is recorded as “binds”.

The values are drawn from patent US20170267730A1 (UNIVERSITY COURT OF THE UNIVERSITY OF EDINBURGH, published 2017).
